This is an account of results in patent US7097982 (IMMUNOGEN, dated 2006).

For one assay, the target named is T1, Flag tag-Bcl-xL (UniProt Q07817 1-233).
T1 construct: Expressed in transfected COS cells; also called Flag-Bcl-xL
In words: co-immunoprecipitation from transfected COS cells (summarised in FIG. 6).

Assay [1] concerns the target GST-PEM bacterially-expressed fusion protein (Bak residues 58-103 fused to GST) (UniProt P08515 1-218 = GST; Q16611 58-103). Briefly: GST pull-down of in vitro translated 35S labeled protein.
The target in assay [2] is GST alone (purified, bacterially expressed) (UniProt P08515 1-218 = GST). Briefly: GST pull-down on glutathione-agarose, autoradiography.
Sequence of GST alone (purified, bacterially expressed) (P08515 whole entry): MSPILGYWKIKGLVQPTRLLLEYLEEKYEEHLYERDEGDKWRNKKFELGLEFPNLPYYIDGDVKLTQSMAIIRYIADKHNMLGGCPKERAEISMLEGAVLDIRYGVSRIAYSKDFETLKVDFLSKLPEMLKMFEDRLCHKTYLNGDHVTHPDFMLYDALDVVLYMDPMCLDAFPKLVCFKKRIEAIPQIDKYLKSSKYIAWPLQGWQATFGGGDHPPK

T1 sequence (Q07817 whole entry): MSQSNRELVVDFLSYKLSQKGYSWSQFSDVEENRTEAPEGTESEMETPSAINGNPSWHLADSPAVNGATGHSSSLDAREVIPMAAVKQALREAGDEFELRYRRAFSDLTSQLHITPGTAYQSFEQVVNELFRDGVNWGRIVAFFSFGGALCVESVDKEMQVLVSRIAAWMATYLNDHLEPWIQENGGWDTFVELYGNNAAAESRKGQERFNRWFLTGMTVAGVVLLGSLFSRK
Sequence of GST-PEM bacterially-expressed fusion protein (Bak residues 58-103 fused to GST) (P08515 1-218, tags or fused parts left off): as the sequence (P08515 whole entry) above

B1: Bax ΔGD mutant (other, UniProt Q07812 1-192, looked up)
chain: MDGSGEQPRGGGPTSSEQIMKTGALLLQGFIQDRAGRMGGEAPELALDPVPQDASTKKMELQRMIAAVDTDSPREVFFRVAADMFSDGNFNWGRVVALFYFASKLVLKALCTKVPELIRTIMGWTLDFLRERLLGWIQDQGGWDGLLSYFGTPTWQTVTIFVAGVLTASLTIWKKMG
Take B1: the binding result with Flag tag-Bcl-xL is listed as “no binding”.

B2: Bip1a (other, UniProt Q13323 1-160, looked up)
chain: MSEVRPLSRDILMETLLYEQLLEPPTMEVLGMTDSEEDLDPMEDFDSLECMEGSDALALRLACIGDEMDVSLRAPRLAQLSEVAMHSLGLAFIYDQTEDIRDVLRSFMDGFTTLKENIMRFWRSPNPGSWVSCEQVLLALLLLLALLLPLLSGGLHLLLK
notes: Used in vitro translated and 35S labeled, and expressed in transfected COS cells; also called in vitro translated, 35S labeled Bip1a
As for B2, the binding result in assay [1] is recorded as “no binding”.

B3: Bip1a ΔGD mutant (other, UniProt Q13323 1-160, looked up)
chain: MSEVRPLSRDILMETLLYEQLLEPPTMEVLGMTDSEEDLDPMEDFDSLECMEGSDALRAPRLAQLSEVAMHSLGLAFIYDQTEDIRDVLRSFMDGFTTLKENIMRFWRSPNPGSWVSCEQVLLALLLLLALLLPLLSGGLHLLLK
With B3, the binding result with Flag tag-Bcl-xL is “no binding”.

B4: Bak, in vitro translated, 35S-methionine labeled (other, UniProt Q16611 1-211, looked up)
chain: MASGQGPGPPRQECGEPALPSASEEQVAQDTEEVFRSYVFYRHQQEQEAEGVAAPADPEMVTLPLQPSSTMGQVGRQLAIIGDDINRRYDSEFQTMLQHLQPTAENAYEYFTKIATSLFESGINWGRVVALLGFGYRLALHVYQHGLTGFLGQVTRFVVDFMLHHCIARWIAQRGGWVAALNLGNGPILNVLVVLGVVLLGQFVVRRFFKS
modifications: 35S-methionine label
notes: also called 35S labeled in vitro translated Bak; 35Met-labeled Bak
Turning to B4, the binding result in assay [2] is “no binding”.
